{"source": "paper PMC3755335", "about": "“Inactivation of the phosphoglucomutase gene pgm in Corynebacterium glutamicum affects cell shape and glycogen metabolism” (Bioscience Reports, 2013)", "proteins": {"B1": {"name": "phosphoglucomutase Pgm (main Pgm isoenzyme, encoded by pgm, cg2800) of Corynebacterium glutamicum (enzyme, UniProt Q8NMN0 1-554, looked up)", "chain": "MAHERAGQLAQPEDLIDVAELVTAYFTRKPDVNNPDQQVAFGTSGHRGSALDSAFNEDHILATTQAIVDYRNQQPKNWVGPLFIGRDTHALSEPAMISALEVLIANDVEVLVDADGRYTPTPAVSHAILRHNDGIILGTAGPSRPYADGIVITPSHNPPRDGGFKYNPANGGPADTDATDWIANRANDILRGDLADVKRVPVSGVLDERTTAYDFKGIYIADLPNVVNIDAIREAGVRIGADPMGGASVDYWGAIAETHGLNLTVVNPHVDSTFRFMTLDTDGKIRMDCSSPHAMASLIDNRDKFDVATGNDADADRHGIVTPDAGLMNPNHYLAVAIEYLFAHRPGWSADTAVGKTLVSSSMIDRVVAQLGRTLVEVPVGFKWFVPGLISGEIGFGGEESAGASFLRMDGTTWSTDKDGLILDLLAAEIIAVTGKTPSQRYAELAEEFGAPAYARTDAEANREQKAILKALSPEQVTATELAGEAITAKLTEAPGNGAAIGGLKVTTENAWFAARPSGTEDKYKIYAESFKGEEHLAQVQKEAQALVSEVLGQ", "notes": "Phosphoglucomutase Pgm of Corynebacterium glutamicum, ORF cg2800 (pgm), native enzyme; band of approx. 60 kDa on SDS/PAGE assigned to cg2800 by MALDI-TOF-MS peptide fingerprinting; Endogenous, untagged enzyme; the final gel filtration fraction still held a second band (approx. 80 kDa, cg2523, malQ); also called α-Pgm; pgm gene product"}}, "key": {"[1]": {"substrate": "O=P(O)(O)O[C@H]1O[C@H](CO)[C@@H](O)[C@H](O)[C@H]1O", "assay": "coupled assay with glc-6-P dehydrogenase (NADP reduction)", "assay_type": "biochemical, Corynebacterium glutamicum", "details": "100 mM Tris/HCl pH 7.4, 10 mM MgCl2, 1 mM NADP, 2 units glc-6-P dehydrogenase, glc-1-P 0.05–20 mM"}, "[2]": {"target": "the molecule itself", "assay": "SEC; HiLoad XK16/60 Superdex 200 PrepGrade, 0.02 M sodium phosphate, 0.15 M NaCl, pH 7.4, 0.5 ml/min; fractions screened by Pgm activity; retention volume compared with standard proteins (LMW and HMW calibration kits)"}}}
{"protein": "B1", "values": [{"measurement": "Km", "setting": "[1]", "value": "1410 ± 230", "unit": "µM"}, {"measurement": "stoichiometry N", "setting": "[2]", "value": 2}]}
